Measured values: the domain aggregation screens of Martell et al. (2025)

Assay: soluble fraction after stress (log2 fold change); higher = more stays soluble; pooled small domains, quantitative proteomics
Conditions: stress: 50 degC
How it was run: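 Custom libraries of small protein domains were pooled and measured in a high-throughput format, with quantitative proteomics as the read-out. Each library was stressed at 50°C. The value is the log2 fold change in the amount of each protein that stays soluble after stress, used as a measure of aggregation propensity; higher values mean more of the protein stays soluble.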

First: HMRKPISQEIVDEVLKLAKNNPDWGYDRIAGVMKYLKYDVSATTVRHILDDNGIVPDPERRLR
Second: HMDTIGSKVLAFLAGNLLDPTPFNYRFGYLYLNRTSKVIVEETDTYIDSGMRMTQEAVAEIMQKFAQ
The “soluble fraction (log2)” value of the first is higher: 0.333 for the first, -3.9 for the second.

“HMAAVPQPQRSETIVYIGGRKFYVHTVQAGETLYSIARLYGVSEQTLVANNPTMADVVKADQNVRIPVPA” and “HMVDKDFKPLYASLERLDSTSIIEILDSNRIDYRIDQRSGALLVDADQIHQARLSLASAGMPA” are within 0.2 log units of each other in “soluble fraction (log2)” value: -0.272 for the first, -0.116 for the second.

“HMFDPTDLPEKQLMVYEIIKSNNGINMTNIASLLGFNKTTVDNAIRALKKKEIVVFKGTNRSGGYFNT” and “HMSGKWSILILHALEQGPKRFNVLHRELSGITQATLTKQLRQLEEDGIILRKAYPQIPPKVEYQLTEIG” are within 0.2 log units of each other in “soluble fraction (log2)” value: -1.66 for the first, -1.74 for the second.

Compared with “HMQQGVEQLPVTEVGGRLMHYYEVQPKETLYSLSHKLGVGQEYIEQHNPSVRGGLRAFMTLYFPAA”, “HMEVAAAENYRSKLSSFAKDTISVWQTELLLGTISDDDKASLTEWMAYIKALQVVDTSDPESITWPTEPT” is lower in “soluble fraction (log2)” value: -0.0212 for the first, -1.45 for the second.

First: HMSKTQYTFKEVGSQFQLFAPSTKHTIMISADHPKYGWLTNQDQGRVINVYDTGKMTSSQDYYGLYKEVT
Second: HMFSDDEINRLKARDSILVNLRDSEKQVWELYTDGKTVQNIANQLNKHKQSISATIINIKNKISRKQNMLK
The “soluble fraction (log2)” value of the first is higher: -0.155 for the first, -0.534 for the second.

Compared with “HMVVYDAELLLNINPGMSYEEVKEMLGDPGMIIAGNDAENSVYRWSTGGISFMGRFENGALIRKSIISP”, “HMQRRHESTPIPADFDYAAVRGLSAEVQQKLERVRPLSIGQAQRIPGMTPAAISLLLVHLERQRRSRV” is higher in “soluble fraction (log2)” value: -0.621 for the first, -0.152 for the second.

First: HMDDDIKNALDVLPEQYRMTVYYADVEGLAYKEIGAIMNTPIGTVMSRIHRGRSQLRVLLAAVAADR
Second: HMGVRLAPEVDRIPYGQMHPNLKKVKDLYEASYKAYVQALSSGNQALAKEKLEEFQSTKARYQRALSAYT
The “soluble fraction (log2)” value of the first is lower: -0.0377 for the first, 0.189 for the second.

First: HMEIIMIVITKPSITDERIAEIVAVIERNGGVQAHVSKGTDRTVIGIIGKAEPTLAEHLRQMKGVENVIKI
Second: HMDIVIPIQVKNVSSGEVLDFPSIRAAARDLKFPKTTISLGVRYAGEKAYKGFVMRYRSDDPWPIVQES
The “soluble fraction (log2)” value of the first is higher: 0.0636 for the first, -1.93 for the second.

Going from “HMSMEKNWVPSEDVIEILTRAGMNENFIRELIPEFIIYWSERKDVLISYDSKFIEHARLKWAQHNAE” to “HMGKRKDFTYTGNYFSEYKNQTFPSLSSFLKLVGKYENYGTIKRRVRFGWDIDEAILRENIN”, the “soluble fraction (log2)” value falls from 0.176 to -0.773.

Compared with “HMTLTIEDGYVNAKLKTTVEGLAEDSTIKVDSIEYTNAGKNDILTVFVEDKPYRVEKYKINIAPEDS”, “HMTPQVTVPDVTGQSFASAKQVLESLGLTVKQQGSTGENDKVIGQNPTSGNADKGATITLTTQDS” is higher in “soluble fraction (log2)” value: 0.0185 for the first, 0.343 for the second.

Compared with “HMRDITAQSNASELYFEERDLEAFIEKLERLYPEIRYVNRLMIHSWGQQVVRFFDPDGNLIEVGTP”, “HMGSLGRAIRSRREKMKVGLEELAAKTGLSESHISDIEEGRGFAPVGDILKIARALTIDPGELLK” is higher in “soluble fraction (log2)” value: -0.145 for the first, 0.361 for the second.

First: HMGKNYYEILGITKSASEEQVRKAFRGLAMEWHPDRNRSADSEERFKEINEAYQVLIDPKKRQMYDQYGR
Second: HMEKSLSAQVYEKIKAGIISLKYPPGSVLKERELSESLGVSRTPVREAIQRLSQESWLVPGEGKRMQVRP
The “soluble fraction (log2)” value of the first is higher: 0.388 for the first, 0.134 for the second.

Going from “HMVTGSIYERKGIYYAIVSYYVDGRRKQKSVSTGLSVKGNKRRALEFLENLKRTYETKESMENMD” to “HMLSTNDYNENKNKLIKDFEIKFIIKHLKLNKGNVAATARSINFHPVSLRQKIAKLGIDVDEVMAG”, the “soluble fraction (log2)” value rises from -3.16 to -1.84.

Compared with “HMGDLTVPDLSGLTVDQAKQRLKDMGLVLGKITTQEDSSKPDGVIISQSPSADGKINKGQLVDVVVNKLS”, “HMNSVAASLREISIKVSGTEDADKVSRLQELSQMPKLDASGIAEANTLLEQLRAKYGDLGLSVDTARGRIV” is higher in “soluble fraction (log2)” value: 0.0463 for the first, 0.284 for the second.

Going from “HMIALKNLREEKRMTQAELSKDLEISPSAIGMYEQGRRVPDVSTLKKISAYFNVSIDYLLGNSTSKDI” to “HMKRVVFFNGISWYHRTKELLDDMTTKYGKKGGFATPEEAEKSYWEYEERYKDRQRELQVAYLKN”, the “soluble fraction (log2)” value falls from -0.018 to -0.648.

First: HMRSVLSDEIYLLIRKMIFNYEILPGAKVNIDALAKKLDVSQTPVREALSRLESDGLIVKEPLKGFRATD
Second: HMQLPFTPREHEITQLLSRGLSNRQIAEALSLSVRTVEGHIYQASTKLGISSRSELAVLVGQFA
The “soluble fraction (log2)” value of the first is higher: -0.875 for the first, -1.89 for the second.

Going from “HMSISEADAKKIALEKVPGATDSNLRIKTDYDDGIMKYEVKIVYNEMKYEFDIDAATGTILEWESESVY” to “HMGKEDLTAAIKKMTLNDKLDIHKIVANFQTNDSEEVITAVKWLMENNYLLKIKNNYTWNTKEK”, the “soluble fraction (log2)” value rises from -0.659 to -0.263.

Compared with “HMNDIQIILQEAVARLPKKQQLVFNMKYFDHLKYQEISEILGTSVGGLKASYFQAVKKIENYIINKH”, “HMRDADRYAFMQENVEDFAKDMRRKHMTYDVLYEEYIRRTDNPYGYTQFKAIVQEYEKNHDYK” is higher in “soluble fraction (log2)” value: -2.38 for the first, -0.141 for the second.

“HMATEWLSSKEAAQRLGVSAATLYAYVSRGLLRSEGSSGQRERRYRADDVAQLRRRREVGRKAESIAASTL” and “HMEYKTGIINTNKVRVRNAADADATVIFAINKDIKVKILAEENGFYKIGVSVKNRGNGEDLIGFVKKELIT” are within 0.2 log units of each other in “soluble fraction (log2)” value: -0.433 for the first, -0.631 for the second.

First: HMKGEIEELLYEEVTKDNNTTFLRIYIKLNDEYNTLLNLGIIGIKTEEKVNELVNLGYKKVL
Second: HMSEHLTLVVSDEDAGHRVDQFLVSRLAHMTRSQIQKLIKDGQVTIDTKLVRASTTVHTDNIVTIEFPPAV
The “soluble fraction (log2)” value of the first is lower: -2.45 for the first, -0.505 for the second.

Compared with “HMKMPNGYGSVYKLSGNRRKPWAARVTDGWVNDTKTKKSKQKYKFIGFYETRKEALLALADYNANP”, “HMQTTITITNTVTGQKAQFPPPFNPMSLSKIGVDETFEKEVFVDGVDTFGYGLDGYLTFYELKDFLRSYQ” is lower in “soluble fraction (log2)” value: -1.43 for the first, -2.5 for the second.

“HMTDSLELADLLRRAIITGEYKPRERLVEMELAQKYSVSRTPVREALKHLEALGLVKMERYKGAMVAD” and “HMEDSEYDRLLAEIDEGIRKAIETLEPVELSPQNARVRRIQHQIIEKYQLHSDSVGEEPYRRVRIL” are within 0.2 log units of each other in “soluble fraction (log2)” value: -0.46 for the first, -0.593 for the second.

“HMSPDTREAILAAARTAFARDGYQTSLRGIARDAGVDPALVHHYFPDRATLFAKAVIESTAG” and “HMEDKFEYQGERKSLIYPTSFSELTEALGVRNMLQSIIDFATRDEDTSGYEEMKERQNEYIQEYL” are within 0.2 log units of each other in “soluble fraction (log2)” value: -0.00189 for the first, 0.0302 for the second.

“HMVLANLQAAEQGDLGIKEGEKLTILQTRPDGWWTARNANGETGLVPK” and “HMAKRKYKSFKDVAEFAQKLGIKSSTEWWAYVRGHEIPSDIPKDPSTYYKKEWTTWGDFLGTGYVSSA” are within 0.2 log units of each other in “soluble fraction (log2)” value: 0.173 for the first, 0.154 for the second.

Going from “HMQIYSQEIYDAQKVLKELGLYTSDLDGLNGPGTKRALRNFQSKSGLNADGVLGPLTKSALDKGEESYITV” to “HMGMVDKSMYSRYDVGDLVKVLRGPLEGSEGHITEINTDTGTVKVETVFFGRSTVVEVDFSEIDK”, the “soluble fraction (log2)” value falls from 0.0375 to -0.281.

Going from “HMISKRFQVDEENSNNRVDIFLANNLDSISRGIVQQLILDGKVLVNGETVKRNHLLKTNDEVDISFEI” to “HMRIAGIDIPDNKRGEVALTYIFGIGRSSSKKILKSAGIDSDKQIGKWTDDESNLVRKLIRDEYTIEGDL”, the “soluble fraction (log2)” value falls from 0.298 to -0.412.

“HMLAIKKGGIFAILGPNGSGKSTFSKVLAGHPAYTVVDGDIFFKGLSILDLEPEERSHLGIFLAFQ” and “HMIKIEDYTNKDYNKVEASLEVKGLVVNIEYKAVDDKAKYKGKEDLIIDQSVKKDATLVKGDTIILYLPK” are within 0.2 log units of each other in “soluble fraction (log2)” value: -0.153 for the first, -0.268 for the second.

Going from “HMSESLLTAAGFKTIAATTPEQKRHLEWLHPDQVTAVQLTGQHYYVYPDVAKSQLFVGTPKEYQAYLALRT” to “HMDKVEQLMQNPVIQEKMSEGDRELLRNASLVVLGRLEDDGSIIQRFVELFGEEAYERLKSELM”, the “soluble fraction (log2)” value rises from -0.414 to 0.259.

Compared with “HMYRLDVEISDEIKRDIDEETLSEIKGIIAEDPRPSYQNDETRIYRFTFAGREISFRVKDRTATVTEIL”, “HMGEQVAVPDVTKKSVREVNNILTSAGLRLQIEGSGISVRQDPPADTMVAPDTVVTVSFEPP” is higher in “soluble fraction (log2)” value: -0.0821 for the first, 0.168 for the second.

First: HMKVKIFNGMKLVTNSTGLTVDGKPAALDESNADAKTYSQGLYVFIVYQSGKIAVMQDGKFLGYA
Second: HMYSQIGYGSSGSDVRKLQEILNGKGYNLSVDGQFGAKTKSAVRDYQSKNGLSVDGIVGVNTWGKLT
The “soluble fraction (log2)” value of the first is lower: -1.77 for the first, -0.0169 for the second.

“HMTQTAVFSKGEQEYYFPLSKVLFFETDGNTINVHTADDIYETRYRLYELEEMLPGSFMRISKSAVVNTNR” and “HMEGLDDKTKIILFAGDKKEQEYSLADLKSKLNITENLTESELIKLLEKQGYVLDVNANNEFMFKKD” are within 0.2 log units of each other in “soluble fraction (log2)” value: -0.0904 for the first, -0.0985 for the second.

“HMDIEHREMKLQKLVITADSPLVGKTLKESNVRQRYNFMVVGVEEGQKNLTMINPNRRFEVGDIVWVVGEE” and “HMLGDIYISIPRAKLQAEEYGHSFKRELAFLAVHGFYHLLGYDHQTKEEEEVMFGKQEEVLAEFDIKR” are within 0.2 log units of each other in “soluble fraction (log2)” value: -0.0892 for the first, -0.218 for the second.

Going from “HMENLSFNINSEEEGQRIDKYLSVMIEGKSRSFVQGLIEEKKVKANSKVIKSNYKLKKGDFIEVEVPEPV” to “HMGNIALAIARFREMIAEDPNLQPVRLHLAMALMADHQDEAARGQLEKLRSDQLPDDIRKIVDDALAALR”, the “soluble fraction (log2)” value falls from 0.27 to -1.13.

First: HMTVDTSELEEMIDDLIKEHPNEWERYSSGEKKVQGFFVGQVMKATSGQADGKAINQILSKRVKS
Second: HMSKPLEVFKLTSEPFGFSFNTALGRSYTVEATGDLGVWKAVELFQGSGGEIRFTAKPTSSGGAQFFRVFV
The “soluble fraction (log2)” value of the first is higher: 0.354 for the first, -0.0927 for the second.

First: HMQNMVYVATKDIPAGGVIDQDSVSKTAISTSIDTSLYITDDDLGKIAVVNISQGQSVFSNMVGT
Second: HMVITEQTVTVKYLYEDDTEAAPEHSETHKTGETFEIESPKIDGFTPDYELITGTIANDDLVYIVRYKTTP
The “soluble fraction (log2)” value of the first is higher: 0.0238 for the first, -0.282 for the second.

“HMTSLAEQAYRHIRDKLSNGAFVPGEQLVNRVLATEIGVSVIPVREAINRLATEGLVKHVPGSGAFVRQ” and “HMNHSITLTERKNLLITGVKKIENFDKEEFLIETTMGFLVVKGDGLELIKLDTISGNVSIKGIVNGFTYID” are within 0.2 log units of each other in “soluble fraction (log2)” value: 0.0904 for the first, 0.223 for the second.

“HMSTQVPDVKERSQEEARSILESAGFKVTPAVKTEDSADIAKDMVTKTDPAAGQSVPKGTTITIYVSS” and “HMKNNITFSEFLHEVDNGRVIKVNIQGNNITGILADGKSFNTYTPNDPSLIEKLTSKGVSISATPI” are within 0.2 log units of each other in “soluble fraction (log2)” value: 0.149 for the first, 0.0489 for the second.

For “HMRRSDLVTQGDEILKRLQWNQQQAKDFLNQHLKASSRQQLTDEQLLNFNMLLEEQLVKSME”, the “soluble fraction (log2)” value was 0.103.
